Measurements: PMC5099872 (Cell Research, 2016)

B1: Sre1-CTD WY mutant, residues 628-896, W702D/Y703D (domain or fragment, Schizosaccharomyces pombe, UniProt Q9UUD1 628-896, looked up)
chain: QHSKSSVHAELRELPECTANLIENSHADDVFSPNMVERLWVLAKCTRDSAQMSDSIISSLSDVLVLSPLEVLASDDAADLLDALLMESLSRKVEISEIEEIISLCPKNSSIIRHALLAKLVLFPENTADSLNEVLAAYKNTLDLCSQDKRKQSSVLKINLSKLFTLHSCLSLALQRLGYGDVSKRMYQEIFVPDSDADITPLSFIISWTALNTFAPICTSPKENDVVEKMAMYVRTAIGTLKIQDLKLSRKLINSCIDIGSRLQEDLGY
B2: Sre1-CTD ΔC-tail variant, residues 628-876, C644S/C672S (domain or fragment, Schizosaccharomyces pombe, UniProt Q9UUD1 628-876, looked up)
chain: QHSKSSVHAELRELPESTANLIENSHADDVFSPNMVERLWVLAKSTRDSAQMSDSIISSLSDVLVLSPLEVLASWYAADLLDALLMESLSRKVEISEIEEIISLCPKNSSIIRHALLAKLVLFPENTADSLNEVLAAYKNTLDLCSQDKRKQSSVLKINLSKLFTLHSCLSLALQRLGYGDVSKRMYQEIFVPDSDADITPLSFIISWTALNTFAPICTSPKENDVVEKMAMYVRTAIGTLKIQDLKLS

How the values were obtained:
AUC = target: the molecule itself; test: AUC
crystal structure = target: the molecule itself; test: crystal structure

Row | Protein | stoichiometry N (AUC) | stoichiometry N (crystal structure)
1 | B1 | 2 | 
2 | B2 |  | 2
